Measured values reported in paper PMC3026963 (The Biochemical journal, 2010).

Target: protein kinase CK2 catalytic subunit α (human, UniProt P68400 1-391)
Test: SEC

Chain of protein kinase CK2 catalytic subunit α (P68400 whole entry): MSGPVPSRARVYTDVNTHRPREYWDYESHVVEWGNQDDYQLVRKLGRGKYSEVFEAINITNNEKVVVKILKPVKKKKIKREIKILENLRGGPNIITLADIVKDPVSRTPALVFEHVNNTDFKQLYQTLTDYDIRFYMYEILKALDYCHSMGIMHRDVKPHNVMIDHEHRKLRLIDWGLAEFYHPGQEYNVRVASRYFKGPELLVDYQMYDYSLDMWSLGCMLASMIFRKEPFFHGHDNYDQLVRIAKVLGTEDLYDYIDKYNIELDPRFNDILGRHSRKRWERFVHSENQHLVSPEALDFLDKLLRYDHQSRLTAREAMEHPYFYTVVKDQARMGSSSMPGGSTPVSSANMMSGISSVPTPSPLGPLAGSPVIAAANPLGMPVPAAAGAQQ

binding result: binds
B1: protein kinase CK2 non-catalytic subunit β (natural protein)
chain: not shown
